Biological target: FGFR-1c expressed on BaF3 cells
Assay: cell-based or functional assay

“modified FGF-1 (S116R mutant protein) (from UniProt P05230 16-155) (ligand)” was tested, and the mitogenic potency on BaF3 cells expressing FGFR-1c, relative to wild-type FGF-1 (fold against wild-type FGF-1) was 10.

From patent US20180265558A1
